Data published in PMC10613254 (2023).

B1: Cort_(18-76) (domain or fragment)
chain: GADDWETDPDFVNDVSEKEQRWGAKTVQGSGHQEHINIHKLRENVFQEHQTLKEKELET
B2: Cort_(1-76), cortactin N-terminal acidic domain (NTA, residues 1-76) (domain or fragment)
chain: MWKASAGHAVSITQDDGGADDWETDPDFVNDVSEKEQRWGAKTVQGSGHQEHINIHKLRENVFQEHQTLKEKELET

Target: bovine brain Arp2/3 complex (bovine, UniProt P61157 1-418; A7MB62 1-394; Q58CQ2 1-372; Q3MHR7 1-300; Q3T035 1-178; Q148J6 …)
Test: ITC

In order of rising Kd:
1. B1  2.2 µM
2. B2  4.5 µM
3. MWKASAGHAVSITQDDGGADDWETDPDFVNDVS (domain or fragment) [Cort_(1-33)]  5.4 µM
